# Data taken from US20100129369A1 (Eli Lilly, published 2010).
# Columns and labels:
# [1] = biological target: T1, human c-Met (human, UniProt P08581 25-1390); test: cell-based or functional assay
# [2] = biological target: T1, human c-Met; test: cell-based or functional assay; remark: listed apart in the source
# [3] = biological target: T1, human c-Met; test: cell-based or functional assay; remark: listed apart in the source
# [4] = biological target: T2, human c-Met ECD-Fc-Flis (human); test: HGF-blocking ELISA: HGF signal on coated c-Met ECD-Fc-Flis; Ab 0.48 ng/mL
# T2 construct: c-Met ECD fused to Fc with flag- and His-tag at the C-terminus; also called human c-Met extracellular domain (ECD)-Fc-Flis fusion; human c-Met-Flis-Fc ECD
# Procedure: (§1) Wells of 96-well EIA/RIA high binding plates (Costar, #2592) are coated with 100 μL of human c-Met ECD-Fc-Flis (SEQ ID NO:72) (2 μg/mL) in Dulbecco's phosphate buffered saline (DPBS) overnight at room temperature; washed four times with wash buffer (Tris-buffered saline, pH 8.0, with 0.05% (v/v) polysorbate 20 (TWEEN®-20) (TBS-T) (BioFX Labs, # WSHW-1000-01) in a plate washer; blocked by adding 300 μL of blocking buffer (TBS-T plus 1% (w/v) bovine serum albumin (BSA) (Jackson Immuno, #001-000-162); and incubating for 60 min. at 37° C. Blocking buffer is then removed from the wells and 50 μL of antibodies in blocking buffer at final concentrations as indicated in Table 7 are added into each well, respectively. […] The plates with c-Met antibodies are incubated for 90 min. at 37° C. […] The wells are then washed four times with TBS-T in a plate washer. […] The plates are incubated for 90 min. at room temperature. The wells are again washed four times with TBS-T in a plate washer. 100 μL of a 1:200 dilution of streptavidin-horseradish peroxidase (HRP) (R&D Systems, DY998) in blocking buffer are added to each well. The plates are incubated for 30 min. at room temperature. The wells are washed four times with TBS-T in a plate washer. 100 μL/well of substrate solution (BioFx, #TMBW-1000-01) are then added, and the plates are incubated for 10 min. at room temperature. To stop the reaction, 100 μL/well of stop solution (BioFx, # LSTP-1000-01) are added. The samples are read at a wavelength of 450-570 nm on a microplate reader (Spectra, MAX 190) and no background is subtracted.
# [5] = biological target: T2, human c-Met ECD-Fc-Flis; test: HGF-blocking ELISA: HGF signal on coated c-Met ECD-Fc-Flis; Ab 1.91 ng/mL
# Procedure: as §1
# [6] = biological target: T2, human c-Met ECD-Fc-Flis; test: HGF-blocking ELISA: HGF signal on coated c-Met ECD-Fc-Flis; Ab 7.63 ng/mL
# Procedure: as §1
# [7] = biological target: T2, human c-Met ECD-Fc-Flis; test: HGF-blocking ELISA: HGF signal on coated c-Met ECD-Fc-Flis; Ab 30.52 ng/mL
# Procedure: as §1
# [8] = biological target: T2, human c-Met ECD-Fc-Flis; test: HGF-blocking ELISA: HGF signal on coated c-Met ECD-Fc-Flis; Ab 122.07 ng/mL
# Procedure: as §1
# [9] = biological target: T2, human c-Met ECD-Fc-Flis; test: HGF-blocking ELISA: HGF signal on coated c-Met ECD-Fc-Flis; Ab 488.28 ng/mL
# Procedure: as §1
# [10] = biological target: T2, human c-Met ECD-Fc-Flis; test: HGF-blocking ELISA: HGF signal on coated c-Met ECD-Fc-Flis; Ab 1953.13 ng/mL
# Procedure: as §1
# [11] = biological target: T2, human c-Met ECD-Fc-Flis; test: HGF-blocking ELISA: HGF signal on coated c-Met ECD-Fc-Flis; Ab 7812.50 ng/mL
# Procedure: as §1
# [12] = biological target: T2, human c-Met ECD-Fc-Flis; test: HGF-blocking ELISA: HGF signal on coated c-Met ECD-Fc-Flis; Ab 31250.00 ng/mL
# Procedure: as §1
# [13] = biological target: T2, human c-Met ECD-Fc-Flis; test: HGF-blocking ELISA: HGF signal on coated c-Met ECD-Fc-Flis; Ab 125000.00 ng/mL
# Procedure: as §1
# [14] = biological target: T2, human c-Met ECD-Fc-Flis; test: HGF-blocking ELISA: HGF signal on coated c-Met ECD-Fc-Flis; Ab 0.00 ng/mL (HGF only)
# Procedure: as §1
# T1 sequence (P08581 25-1390): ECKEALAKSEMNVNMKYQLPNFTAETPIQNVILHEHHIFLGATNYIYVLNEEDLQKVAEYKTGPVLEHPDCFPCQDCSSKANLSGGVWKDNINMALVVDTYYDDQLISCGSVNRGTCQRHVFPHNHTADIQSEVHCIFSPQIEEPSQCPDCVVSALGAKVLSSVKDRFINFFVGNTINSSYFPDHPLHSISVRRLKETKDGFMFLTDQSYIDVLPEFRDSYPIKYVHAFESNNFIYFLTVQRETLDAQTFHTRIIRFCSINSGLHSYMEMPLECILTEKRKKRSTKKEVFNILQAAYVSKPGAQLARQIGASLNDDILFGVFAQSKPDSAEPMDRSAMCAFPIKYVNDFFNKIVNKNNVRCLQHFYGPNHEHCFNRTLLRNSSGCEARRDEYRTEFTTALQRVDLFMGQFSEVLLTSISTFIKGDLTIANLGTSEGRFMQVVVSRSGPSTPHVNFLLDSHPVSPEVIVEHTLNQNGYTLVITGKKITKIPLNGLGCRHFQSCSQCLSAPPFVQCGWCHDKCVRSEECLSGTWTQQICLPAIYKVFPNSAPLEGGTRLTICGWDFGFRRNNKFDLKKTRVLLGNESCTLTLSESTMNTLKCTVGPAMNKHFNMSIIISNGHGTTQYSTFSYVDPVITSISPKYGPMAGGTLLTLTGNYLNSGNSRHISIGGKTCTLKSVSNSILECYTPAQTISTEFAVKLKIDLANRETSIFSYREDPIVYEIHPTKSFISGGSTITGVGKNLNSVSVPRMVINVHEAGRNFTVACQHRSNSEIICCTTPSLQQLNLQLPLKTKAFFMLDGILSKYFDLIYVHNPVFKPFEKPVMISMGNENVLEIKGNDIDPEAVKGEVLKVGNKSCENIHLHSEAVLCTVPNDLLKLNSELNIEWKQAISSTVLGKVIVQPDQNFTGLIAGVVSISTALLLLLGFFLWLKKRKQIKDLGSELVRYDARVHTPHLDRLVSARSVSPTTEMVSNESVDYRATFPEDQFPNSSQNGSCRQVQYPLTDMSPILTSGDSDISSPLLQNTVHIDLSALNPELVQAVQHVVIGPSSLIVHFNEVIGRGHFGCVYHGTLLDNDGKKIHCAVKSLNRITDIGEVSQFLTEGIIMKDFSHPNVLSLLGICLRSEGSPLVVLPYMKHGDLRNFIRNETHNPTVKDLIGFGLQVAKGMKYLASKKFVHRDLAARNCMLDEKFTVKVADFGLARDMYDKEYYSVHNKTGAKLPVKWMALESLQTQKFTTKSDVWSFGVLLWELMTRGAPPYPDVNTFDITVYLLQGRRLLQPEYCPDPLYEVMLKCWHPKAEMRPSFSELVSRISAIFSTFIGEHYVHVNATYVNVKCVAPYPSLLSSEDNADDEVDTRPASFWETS
# T2 sequence (chain, as listed by the source): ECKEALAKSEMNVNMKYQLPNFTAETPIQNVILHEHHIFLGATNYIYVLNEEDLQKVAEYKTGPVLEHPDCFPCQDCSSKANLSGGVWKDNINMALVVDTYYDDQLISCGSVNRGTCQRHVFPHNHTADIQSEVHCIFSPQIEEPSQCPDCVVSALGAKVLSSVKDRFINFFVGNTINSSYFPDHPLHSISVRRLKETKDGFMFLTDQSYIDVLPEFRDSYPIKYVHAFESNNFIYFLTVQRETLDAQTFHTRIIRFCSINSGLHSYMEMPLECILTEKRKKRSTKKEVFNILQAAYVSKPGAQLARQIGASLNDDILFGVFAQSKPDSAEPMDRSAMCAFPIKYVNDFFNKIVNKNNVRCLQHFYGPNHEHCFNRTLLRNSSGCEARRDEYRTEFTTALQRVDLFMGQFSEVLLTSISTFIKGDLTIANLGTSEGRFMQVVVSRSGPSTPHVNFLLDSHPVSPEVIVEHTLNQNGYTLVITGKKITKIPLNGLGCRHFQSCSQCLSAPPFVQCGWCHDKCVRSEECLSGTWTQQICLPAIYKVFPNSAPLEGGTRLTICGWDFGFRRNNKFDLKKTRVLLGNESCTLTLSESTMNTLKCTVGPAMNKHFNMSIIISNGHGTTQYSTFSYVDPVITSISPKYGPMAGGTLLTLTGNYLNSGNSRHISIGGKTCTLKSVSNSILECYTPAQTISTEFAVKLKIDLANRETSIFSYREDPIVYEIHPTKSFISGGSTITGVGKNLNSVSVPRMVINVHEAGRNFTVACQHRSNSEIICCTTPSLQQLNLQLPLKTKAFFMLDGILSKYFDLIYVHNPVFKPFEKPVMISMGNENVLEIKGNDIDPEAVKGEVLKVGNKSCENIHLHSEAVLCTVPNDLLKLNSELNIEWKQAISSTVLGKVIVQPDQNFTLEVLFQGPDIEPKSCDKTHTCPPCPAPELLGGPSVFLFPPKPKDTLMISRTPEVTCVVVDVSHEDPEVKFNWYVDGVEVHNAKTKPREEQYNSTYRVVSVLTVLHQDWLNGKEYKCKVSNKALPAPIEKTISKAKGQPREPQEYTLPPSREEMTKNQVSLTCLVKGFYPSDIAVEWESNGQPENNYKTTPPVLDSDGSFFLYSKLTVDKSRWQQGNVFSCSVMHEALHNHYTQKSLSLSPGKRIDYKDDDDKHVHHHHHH
Binder,"% inhibition of HGF stimulated phospho-Met (ELISA, HCT116 cells), Ab 0.0032 µg/mL [1] [%]","% inhibition of HGF stimulated phospho-Met (ELISA, HCT116 cells), Ab 0.016 µg/mL [1] [%]","% inhibition of HGF stimulated phospho-Met (ELISA, HCT116 cells), Ab 0.08 µg/mL [1] [%]","% inhibition of HGF stimulated phospho-Met (ELISA, HCT116 cells), Ab 0.4 µg/mL [1] [%]","% inhibition of HGF stimulated phospho-Met (ELISA, HCT116 cells), Ab 2 µg/mL [1] [%]","% inhibition of HGF stimulated phospho-Met (ELISA, HCT116 cells), Ab 10 µg/mL [1] [%]","Mean Fluorescence (c-Met left on the surface of MKN45 cells, FACS), Ab 5.00 ug/mL [2]","AVG CPM, 3H-thymidine incorporation in MKN45 cells, Ab 0.0 ng/mL (no antibody) [3] [CPM]","AVG CPM, 3H-thymidine incorporation in MKN45 cells, Ab 0.1 ng/mL [3] [CPM]","AVG CPM, 3H-thymidine incorporation in MKN45 cells, Ab 0.4 ng/mL [3] [CPM]",AVG A450 nm [4] [A450 nm],AVG A450 nm [5] [A450 nm],AVG A450 nm [6] [A450 nm],AVG A450 nm [7] [A450 nm],AVG A450 nm [8] [A450 nm],AVG A450 nm [9] [A450 nm],AVG A450 nm [10] [A450 nm],AVG A450 nm [11] [A450 nm],AVG A450 nm [13] [A450 nm],AVG A450 nm [14] [A450 nm],further results
"D11-S17Y (antibody, human IgG2, kappa, V domains shown, Human engineered IgG2 kappa c-Met antibody; also called D11-S17Y IgG2) VH: QVQLVQSGAEVKKPGSSVKVSCKASGYTFTSRYIHWVRQAPGQGLEWMGWIYPVTGDTYYNEKFKGRVTITADKSTSTAYMELSSLRSEDTAVYYCARGYGAFYYWGQGTLVTVSS VL: EIVLTQSPGTLSLSPGERATLSCSVSSSISSTNLHWYQQKPGQAPRLLIYGTSYLASGIPDRFSGSGSGTDFTLTISRLEPEDFAVYYCQQWSSYPYSFGQGTKLEIKR",9.48,2.53,-3.24,15.9,31.4,16.7,56.4,44200,44600,45300,2.15,1.98,2.08,2.07,1.69,1.29,1.23,1.12,1.35,2.43,"AVG CPM, 3H-thymidine incorporation in MKN45 cells, Ab 2.6 ng/mL [3]: 49900 CPM; AVG CPM, 3H-thymidine incorporation in MKN45 cells, Ab 15.4 ng/mL [3]: 39700 CPM; AVG CPM, 3H-thymidine incorporation in MKN45 cells, Ab 92.6 ng/mL [3]: 21900 CPM; AVG CPM, 3H-thymidine incorporation in MKN45 cells, Ab 555.6 ng/mL [3]: 20900 CPM; AVG CPM, 3H-thymidine incorporation in MKN45 cells, Ab 3333.3 ng/mL [3]: 21200 CPM; AVG CPM, 3H-thymidine incorporation in MKN45 cells, Ab 20000.0 ng/mL [3]: 19800 CPM; AVG A450 nm [12]: 1.17 A450 nm"
"D11-C27G3 (antibody, human IgG2, kappa, V domains shown, Human engineered IgG2 kappa c-Met antibody; also called D11-27G3; D11-C27G3 IgG2) VH: QVQLVQSGAEVKKPGSSVKVSCKASGYTFTSRYIHWVRQAPGQGLEWMGWIYPVTGDTYYREPFKGRVTITADKSTSTAYMELSSLRSEDTAVYYCARGYGAFYYWGQGTLVTVSS VL: EIVLTQSPGTLSLSPGERATLSCSVSSSISSTNLHWYQQKPGQAPRLLIYGTSRLRSGIPDRFSGSGSGTDFTLTISRLEPEDFAVYYCQQWSSYPYSFGQGTKLEIKR",9.72,5.73,20.8,38.1,31.8,1.25,51.1,44200,41500,44000,2.37,2.31,2.27,2.38,1.6,0.94,0.97,0.91,0.89,2.43,"AVG CPM, 3H-thymidine incorporation in MKN45 cells, Ab 2.6 ng/mL [3]: 47000 CPM; AVG CPM, 3H-thymidine incorporation in MKN45 cells, Ab 15.4 ng/mL [3]: 28700 CPM; AVG CPM, 3H-thymidine incorporation in MKN45 cells, Ab 92.6 ng/mL [3]: 14600 CPM; AVG CPM, 3H-thymidine incorporation in MKN45 cells, Ab 555.6 ng/mL [3]: 16000 CPM; AVG CPM, 3H-thymidine incorporation in MKN45 cells, Ab 3333.3 ng/mL [3]: 16900 CPM; AVG CPM, 3H-thymidine incorporation in MKN45 cells, Ab 20000.0 ng/mL [3]: 18400 CPM; AVG A450 nm [12]: 0.94 A450 nm"
"D11-8B8 (antibody, human IgG2, kappa, V domains shown, Human engineered IgG2 kappa c-Met antibody; also called Mab D11-8B8; D11-8B8 IgG2) VH: QVQLVQSGAEVKKPGSSVKVSCKASGYTFTSRYIHWVRQAPGQGLEWMGWIYPVTGDTYYIEKFKGRVTITADKSTSTAYMELSSLRSEDTAVYYCARGYGAFFYWGQGTLVTVSS VL: EIVLTQSPGTLSLSPGERATLSCSVSSSISSTNLHWYQQKPGQAPRLLIYGTSYLASGIPDRFSGSGSGTDFTLTISRLEPEDFAVYYCQQWSSYPYSFGQGTKLEIKR",-10.4,-6.68,10.5,35,40.7,19.6,44.7,50400,41600,43300,2.51,2.48,2.41,2.32,1.92,1.3,1.43,1.24,1.38,2.43,"AVG CPM, 3H-thymidine incorporation in MKN45 cells, Ab 2.6 ng/mL [3]: 44700 CPM; AVG CPM, 3H-thymidine incorporation in MKN45 cells, Ab 15.4 ng/mL [3]: 24400 CPM; AVG CPM, 3H-thymidine incorporation in MKN45 cells, Ab 92.6 ng/mL [3]: 11100 CPM; AVG CPM, 3H-thymidine incorporation in MKN45 cells, Ab 555.6 ng/mL [3]: 11900 CPM; AVG CPM, 3H-thymidine incorporation in MKN45 cells, Ab 3333.3 ng/mL [3]: 11400 CPM; AVG CPM, 3H-thymidine incorporation in MKN45 cells, Ab 20000.0 ng/mL [3]: 11200 CPM; AVG A450 nm [12]: 1.31 A450 nm"
"C8-H241 (antibody, human IgG2, kappa, V domains shown, Named IgG4 kappa; also called Mab C8-H241) VH: QVQLVQSGAEVKKPGASVKVSCKASGYTFTDYYMHWVRQAPGQGLEWMGRVNPNRRGTTYNQKFEGRVTMTTDTSTSTAYMELRSLRSDDTAVYYCARANWLDYWGQGTTVTVSS VL: DIQMTQSPSSLSASVGDRVTITCSVSSSVSSIYLHWYQQKPGKAPKLLIYSTSNLASGVPSRFSGSGSGTDFTLTISSLQPEDFATYYCQVYSGYPLTFGGGTKVEIKR",–,–,–,–,–,–,–,–,–,–,2.45,2.46,2.53,2.42,1.77,0.73,0.68,0.7,0.69,2.61,–
